Values belong to the substance of their own block, whether it stands above or below them.
Columns and labels:
[1] = biological target: His-tagged human IL-18BP (human) (UniProt O95998); experiment: alphaLISA of free IL-18BP after 1 h with titrated IL-18
[2] = biological target: Fc fused human IL-18BP isoform a (IL-18BPa) (human) (UniProt O95998); experiment: SPR, Fc-IL-18BPa captured via anti-human IgG, IL-18 as analyte, 1:1 model
[3] = biological target: modified IL-18 polypeptide SEQ ID NO: 11 (E6K, V11I, C38A, K53A, C76A, C127A) (human) (UniProt Q14116); experiment: cell-based or functional assay
modified IL-18 polypeptide SEQ ID NO: 11 (E6K, V11I, C38A, K53A, C76A, C127A) (human), sequence (Q14116 other isoform, or with tags, fused parts or gaps V11I C38A K53A C76A C127A V11I C38A K53A C76A C127A): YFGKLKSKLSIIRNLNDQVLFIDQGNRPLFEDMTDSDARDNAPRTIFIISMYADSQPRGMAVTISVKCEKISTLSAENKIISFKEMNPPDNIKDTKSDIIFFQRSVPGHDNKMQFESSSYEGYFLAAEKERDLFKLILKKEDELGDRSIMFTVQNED

[4] = biological target: modified IL-18 polypeptide SEQ ID NO: 57 (E6K, C38S, K53A) (human) (UniProt Q14116); experiment: cell-based or functional assay
[5] = biological target: modified IL-18 polypeptide SEQ ID NO: 206 (V11I, C38A, K53A, S55A, C76A, C127A) (human) (UniProt Q14116); experiment: cell-based or functional assay
modified IL-18 polypeptide SEQ ID NO: 206 (V11I, C38A, K53A, S55A, C76A, C127A) (human), sequence (Q14116 37-193 V47I/C74A/K89A/S91A/C112A/C163A): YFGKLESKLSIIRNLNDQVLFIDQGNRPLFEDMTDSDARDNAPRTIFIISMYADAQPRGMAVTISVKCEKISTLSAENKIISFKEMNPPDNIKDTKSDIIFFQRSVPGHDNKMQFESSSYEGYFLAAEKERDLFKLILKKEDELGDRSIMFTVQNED

[6] = biological target: modified IL-18 polypeptide SEQ ID NO: 216 (V11I, C38A, D40A, K53A, C76A, C127A) (human) (UniProt Q14116); experiment: cell-based or functional assay
modified IL-18 polypeptide SEQ ID NO: 216 (V11I, C38A, D40A, K53A, C76A, C127A) (human), sequence (Q14116 37-193 V47I/C74A/D76A/K89A/C112A/C163A): as the sequence (Q14116 37-193 V47I/C74A/K89A/S91A/C112A/C163A) above, with D40A, A55S counted along it

[7] = biological target: modified IL-18 polypeptide SEQ ID NO: 30 (E6K, V11I, C38A, K53A, T63A, C76A, C127A) (human) (UniProt Q14116); experiment: cell-based or functional assay
modified IL-18 polypeptide SEQ ID NO: 30 (E6K, V11I, C38A, K53A, T63A, C76A, C127A) (human), sequence (Q14116 other isoform, or with tags, fused parts or gaps with the stated changes): as the sequence (Q14116 37-193 V47I/C74A/K89A/S91A/C112A/C163A) above, with E6K, A55S, T63A counted along it

[8] = biological target: modified IL-18 polypeptide SEQ ID NO: 219 (V11I, C38A, K53A, C76A, G108A, C127A) (human) (UniProt Q14116); experiment: cell-based or functional assay
[9] = biological target: modified IL-18 polypeptide SEQ ID NO: 62 (E6K, C38A, K53A, C127A) (human) (UniProt Q14116); experiment: cell-based or functional assay
[10] = biological target: modified IL-18 polypeptide SEQ ID NO: 204 (V11I, C38A, K53A, C76A, C127A) (human) (UniProt Q14116); experiment: cell-based or functional assay
[11] = biological target: modified IL-18 polypeptide SEQ ID NO: 218 (V11I, C38A, K53A, C76A, C127A, D132A) (human) (UniProt Q14116); experiment: cell-based or functional assay
modified IL-18 polypeptide SEQ ID NO: 218 (V11I, C38A, K53A, C76A, C127A, D132A) (human), sequence (Q14116 37-193 V47I/C74A/K89A/C112A/C163A/D168A): as the sequence (Q14116 37-193 V47I/C74A/K89A/S91A/C112A/C163A) above, with A55S, D132A counted along it

[12] = biological target: modified IL-18 polypeptide SEQ ID NO: 6 (E6K, V11I, C38A, K53A, T63A, C68A, C76A, D98C, C127A) (human) (UniProt Q14116); experiment: cell-based or functional assay
[13] = biological target: modified IL-18 polypeptide SEQ ID NO: 59 (E6K, C38A, K53A) (human) (UniProt Q14116); experiment: cell-based or functional assay
modified IL-18 polypeptide SEQ ID NO: 59 (E6K, C38A, K53A) (human), sequence (Q14116 other isoform, or with tags, fused parts or gaps C38A K53A C38A K53A): as the sequence (Q14116 37-193 V47I/C74A/K89A/S91A/C112A/C163A) above, with E6K, I11V, A55S, A76C, A127C counted along it

[14] = biological target: modified IL-18 polypeptide SEQ ID NO: 229 (V11I, C38A, C76A, S105K, C127A) (human) (UniProt Q14116); experiment: cell-based or functional assay
[15] = biological target: PEGylated modified IL-18 polypeptide SEQ ID NO: 6 + PEG (E6K, V11I, C38A, K53A, T63A, C68A, C76A, C127A, D98C-30kPEG) (human) (UniProt Q14116); experiment: cell-based or functional assay
[16] = biological target: modified IL-18 polypeptide SEQ ID NO: 217 (V11I, C38A, N41A, K53A, C76A, C127A) (human) (UniProt Q14116); experiment: cell-based or functional assay
modified IL-18 polypeptide SEQ ID NO: 217 (V11I, C38A, N41A, K53A, C76A, C127A) (human), sequence (Q14116 37-193 V47I/C74A/N77A/K89A/C112A/C163A): as the sequence (Q14116 37-193 V47I/C74A/K89A/S91A/C112A/C163A) above, with N41A, A55S counted along it

[17] = biological target: modified IL-18 polypeptide SEQ ID NO: 8 (E6K, V11I, C38A, K53A, T63A, C68A, C76A, T95C, C127A) (human) (UniProt Q14116); experiment: cell-based or functional assay
[18] = biological target: modified IL-18 polypeptide SEQ ID NO: 61 (E6K, C38A, K53A, C76A) (human) (UniProt Q14116); experiment: cell-based or functional assay
modified IL-18 polypeptide SEQ ID NO: 61 (E6K, C38A, K53A, C76A) (human), sequence (Q14116 other isoform, or with tags, fused parts or gaps C38A K53A C76A C38A K53A C76A): as the sequence (Q14116 37-193 V47I/C74A/K89A/S91A/C112A/C163A) above, with E6K, I11V, A55S, A127C counted along it

[19] = biological target: modified IL-18 polypeptide SEQ ID NO: 220 (V11I, C38A, K53A, C76A, H109A, C127A) (human) (UniProt Q14116); experiment: cell-based or functional assay
modified IL-18 polypeptide SEQ ID NO: 220 (V11I, C38A, K53A, C76A, H109A, C127A) (human), sequence (Q14116 37-193 V47I/C74A/K89A/C112A/H145A/C163A): as the sequence (Q14116 37-193 V47I/C74A/K89A/S91A/C112A/C163A) above, with A55S, H109A counted along it

[20] = biological target: modified IL-18 polypeptide SEQ ID NO: 5 (E6K, V11I, C38A, K53A, T63A, C68A, C76A, M86C, C127A) (human) (UniProt Q14116); experiment: cell-based or functional assay
[21] = biological target: modified IL-18 polypeptide SEQ ID NO: 60 (E6K, C38Q, K53A) (human) (UniProt Q14116); experiment: cell-based or functional assay
modified IL-18 polypeptide SEQ ID NO: 60 (E6K, C38Q, K53A) (human), sequence (Q14116 other isoform, or with tags, fused parts or gaps C38Q K53A C38Q K53A): as the sequence (Q14116 37-193 V47I/C74A/K89A/S91A/C112A/C163A) above, with E6K, I11V, A38Q, A55S, A76C, A127C counted along it

[22] = biological target: modified IL-18 polypeptide SEQ ID NO: 214 (V11I, D37A, C38A, K53A, C76A, C127A) (human) (UniProt Q14116); experiment: cell-based or functional assay
modified IL-18 polypeptide SEQ ID NO: 214 (V11I, D37A, C38A, K53A, C76A, C127A) (human), sequence (Q14116 37-193 V47I/D73A/C74A/K89A/C112A/C163A): as the sequence (Q14116 37-193 V47I/C74A/K89A/S91A/C112A/C163A) above, with D37A, A55S counted along it

[23] = biological target: modified IL-18 polypeptide SEQ ID NO: 209 (F2A, V11I, C38A, K53A, C76A, C127A) (human) (UniProt Q14116); experiment: cell-based or functional assay
modified IL-18 polypeptide SEQ ID NO: 209 (F2A, V11I, C38A, K53A, C76A, C127A) (human), sequence (Q14116 other isoform, or with tags, fused parts or gaps V11I C38A K53A C76A C127A V11I C38A K53A C76A C127A): as the sequence (Q14116 37-193 V47I/C74A/K89A/S91A/C112A/C163A) above, with F2A, A55S counted along it

[24] = biological target: modified IL-18 polypeptide SEQ ID NO: 9 (E6K, C38A, K53A, C68A, D98C) (human) (UniProt Q14116); experiment: cell-based or functional assay
modified IL-18 polypeptide SEQ ID NO: 9 (E6K, C38A, K53A, C68A, D98C) (human), sequence (Q14116 other isoform, or with tags, fused parts or gaps C38A K53A C68A D98C C38A K53A C68A D98C): as the sequence (Q14116 37-193 V47I/C74A/K89A/S91A/C112A/C163A) above, with E6K, I11V, A55S, C68A, A76C, D98C, A127C counted along it

[25] = biological target: wild type IL-18 (SEQ ID NO: 1, native sequence) (human) (UniProt Q14116); experiment: cell-based or functional assay
[26] = biological target: modified IL-18 polypeptide SEQ ID NO: 227 (V11I, C38A, S55T, C76A, C127A) (human) (UniProt Q14116); experiment: cell-based or functional assay
[27] = biological target: modified IL-18 polypeptide SEQ ID NO: 228 (V11I, C38A, C76A, S105I, C127A) (human) (UniProt Q14116); experiment: cell-based or functional assay
modified IL-18 polypeptide SEQ ID NO: 228 (V11I, C38A, C76A, S105I, C127A) (human), sequence (Q14116 37-193 V47I/C74A/C112A/S141I/C163A): as the sequence (Q14116 37-193 V47I/C74A/K89A/S91A/C112A/C163A) above, with A53K, A55S, S105I counted along it

[28] = biological target: modified IL-18 polypeptide SEQ ID NO: 210 (V11I, E31A, C38A, K53A, C76A, C127A) (human) (UniProt Q14116); experiment: cell-based or functional assay
modified IL-18 polypeptide SEQ ID NO: 210 (V11I, E31A, C38A, K53A, C76A, C127A) (human), sequence (Q14116 37-193 V47I/E67A/C74A/K89A/C112A/C163A): as the sequence (Q14116 37-193 V47I/C74A/K89A/S91A/C112A/C163A) above, with E31A, A55S counted along it

[29] = biological target: modified IL-18 polypeptide SEQ ID NO: 28 (E6K, C38A, K53A, T63A, C76A, C127A) (human) (UniProt Q14116); experiment: cell-based or functional assay
modified IL-18 polypeptide SEQ ID NO: 28 (E6K, C38A, K53A, T63A, C76A, C127A) (human), sequence (Q14116 other isoform, or with tags, fused parts or gaps C38A K53A T63A C76A C127A C38A K53A T63A C76A C127A): as the sequence (Q14116 37-193 V47I/C74A/K89A/S91A/C112A/C163A) above, with E6K, I11V, A55S, T63A counted along it

[30] = biological target: modified IL-18 polypeptide SEQ ID NO: 207 (V11I, C38A, M51G, K53A, C76A, C127A) (human) (UniProt Q14116); experiment: cell-based or functional assay
modified IL-18 polypeptide SEQ ID NO: 207 (V11I, C38A, M51G, K53A, C76A, C127A) (human), sequence (Q14116 37-193 V47I/C74A/M87G/K89A/C112A/C163A): as the sequence (Q14116 37-193 V47I/C74A/K89A/S91A/C112A/C163A) above, with M51G, A55S counted along it

[31] = biological target: modified IL-18 polypeptide SEQ ID NO: 221 (V11I, C38A, K53A, C76A, D110A, C127A) (human) (UniProt Q14116); experiment: cell-based or functional assay
[32] = biological target: modified IL-18 polypeptide SEQ ID NO: 225 (V11I, C38A, S55H, C76A, C127A) (human) (UniProt Q14116); experiment: cell-based or functional assay
modified IL-18 polypeptide SEQ ID NO: 225 (V11I, C38A, S55H, C76A, C127A) (human), sequence (Q14116 37-193 V47I/C74A/S91H/C112A/C163A): as the sequence (Q14116 37-193 V47I/C74A/K89A/S91A/C112A/C163A) above, with A53K, A55H counted along it

[33] = biological target: modified IL-18 polypeptide SEQ ID NO: 63 (E6K, C38A, K53A, C76A, C127A) (human) (UniProt Q14116); experiment: cell-based or functional assay
[34] = biological target: modified IL-18 polypeptide SEQ ID NO: 205 (V11I, C38A, K53A, T63A, C76A, C127A) (human) (UniProt Q14116); experiment: cell-based or functional assay
modified IL-18 polypeptide SEQ ID NO: 205 (V11I, C38A, K53A, T63A, C76A, C127A) (human), sequence (Q14116 37-193 V47I/C74A/K89A/T99A/C112A/C163A): as the sequence (Q14116 37-193 V47I/C74A/K89A/S91A/C112A/C163A) above, with A55S, T63A counted along it

[35] = biological target: modified IL-18 polypeptide SEQ ID NO: 208 (V11I, C38A, K53A, D54A, C76A, C127A) (human) (UniProt Q14116); experiment: cell-based or functional assay
[36] = biological target: modified IL-18 polypeptide SEQ ID NO: 222 (K8R, V11I, C38A, C76A, Q103E, C127A) (human) (UniProt Q14116); experiment: cell-based or functional assay
[37] = biological target: modified IL-18 polypeptide SEQ ID NO: 4 (E6K, C38A, K53A, C68A, M86C) (human) (UniProt Q14116); experiment: cell-based or functional assay
modified IL-18 polypeptide SEQ ID NO: 4 (E6K, C38A, K53A, C68A, M86C) (human), sequence (Q14116 other isoform, or with tags, fused parts or gaps C38A K53A C68A M86C C38A K53A C68A M86C): as the sequence (Q14116 37-193 V47I/C74A/K89A/S91A/C112A/C163A) above, with E6K, I11V, A55S, C68A, A76C, M86C, A127C counted along it

[38] = biological target: modified IL-18 polypeptide SEQ ID NO: 224 (V11I, C38A, C76A, Q103K, C127A) (human) (UniProt Q14116); experiment: cell-based or functional assay
modified IL-18 polypeptide SEQ ID NO: 224 (V11I, C38A, C76A, Q103K, C127A) (human), sequence (Q14116 37-193 V47I/C74A/C112A/Q139K/C163A): as the sequence (Q14116 37-193 V47I/C74A/K89A/S91A/C112A/C163A) above, with A53K, A55S, Q103K counted along it

[39] = biological target: modified IL-18 polypeptide SEQ ID NO: 215 (V11I, E31A, D37A, C38A, K53A, C76A, C127A) (human) (UniProt Q14116); experiment: cell-based or functional assay
modified IL-18 polypeptide SEQ ID NO: 215 (V11I, E31A, D37A, C38A, K53A, C76A, C127A) (human), sequence (Q14116 37-193 V47I/E67A/D73A/C74A/K89A/C112A/C163A): as the sequence (Q14116 37-193 V47I/C74A/K89A/S91A/C112A/C163A) above, with E31A, D37A, A55S counted along it

[40] = biological target: modified IL-18 polypeptide SEQ ID NO: 223 (K8E, V11I, C38A, C76A, Q103R, C127A) (human) (UniProt Q14116); experiment: cell-based or functional assay
modified IL-18 polypeptide SEQ ID NO: 223 (K8E, V11I, C38A, C76A, Q103R, C127A) (human), sequence (Q14116 other isoform, or with tags, fused parts or gaps V11I C38A C76A Q103R C127A V11I C38A C76A Q103R C127A): as the sequence (Q14116 37-193 V47I/C74A/K89A/S91A/C112A/C163A) above, with K8E, A53K, A55S, Q103R counted along it

[41] = biological target: PEGylated modified IL-18 polypeptide SEQ ID NO: 4 + PEG (E6K, C38A, K53A, C68A, M86C-30kPEG) (human) (UniProt Q14116); experiment: cell-based or functional assay
PEGylated modified IL-18 polypeptide SEQ ID NO: 4 + PEG (E6K, C38A, K53A, C68A, M86C-30kPEG) (human), sequence (Q14116 other isoform, or with tags, fused parts or gaps C38A K53A C68A M86C C38A K53A C68A M86C): as the sequence (Q14116 37-193 V47I/C74A/K89A/S91A/C112A/C163A) above, with E6K, I11V, A55S, C68A, A76C, M86C, A127C counted along it

[42] = biological target: PEGylated modified IL-18 polypeptide SEQ ID NO: 5 + PEG (E6K, V11I, C38A, K53A, T63A, C68A, C76A, C127A, M86C-30kPEG) (human) (UniProt Q14116); experiment: cell-based or functional assay
[43] = biological target: modified IL-18 polypeptide SEQ ID NO: 211 (V11I, T34A, C38A, K53A, C76A, C127A) (human) (UniProt Q14116); experiment: cell-based or functional assay
[44] = biological target: PEGylated modified IL-18 polypeptide SEQ ID NO: 9 + PEG (E6K, C38A, K53A, C68A, D98C-30kPEG) (human) (UniProt Q14116); experiment: cell-based or functional assay
PEGylated modified IL-18 polypeptide SEQ ID NO: 9 + PEG (E6K, C38A, K53A, C68A, D98C-30kPEG) (human), sequence (Q14116 other isoform, or with tags, fused parts or gaps C38A K53A C68A D98C C38A K53A C68A D98C): as the sequence (Q14116 37-193 V47I/C74A/K89A/S91A/C112A/C163A) above, with E6K, I11V, A55S, C68A, A76C, D98C, A127C counted along it

[45] = biological target: modified IL-18 polypeptide SEQ ID NO: 212 (V11I, D35A, C38A, K53A, C76A, C127A) (human) (UniProt Q14116); experiment: cell-based or functional assay
modified IL-18 polypeptide SEQ ID NO: 212 (V11I, D35A, C38A, K53A, C76A, C127A) (human), sequence (Q14116 37-193 V47I/D71A/C74A/K89A/C112A/C163A): as the sequence (Q14116 37-193 V47I/C74A/K89A/S91A/C112A/C163A) above, with D35A, A55S counted along it

[46] = biological target: modified IL-18 polypeptide SEQ ID NO: 213 (V11I, S36A, C38A, K53A, C76A, C127A) (human) (UniProt Q14116); experiment: cell-based or functional assay
[47] = biological target: modified IL-18 polypeptide SEQ ID NO: 226 (V11I, C38A, S55R, C76A, C127A) (human) (UniProt Q14116); experiment: cell-based or functional assay

Fc fused human IL-18BP isoform a (IL-18BPa) (human), sequence (O95998 31-194): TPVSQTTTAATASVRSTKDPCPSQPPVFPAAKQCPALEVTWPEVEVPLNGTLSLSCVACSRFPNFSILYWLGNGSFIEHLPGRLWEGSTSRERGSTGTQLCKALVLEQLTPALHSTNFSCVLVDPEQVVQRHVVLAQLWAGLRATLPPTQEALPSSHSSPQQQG
wild type IL-18 (SEQ ID NO: 1, native sequence), sequence (Q14116 37-193): as the sequence (Q14116 37-193 V47I/C74A/K89A/S91A/C112A/C163A) above, with I11V, A38C, A53K, A55S, A76C, A127C counted along it

Kd [1]: 0.414 nM | Kd [2]: 0.27 nM | koff [2]: 0.000383 s⁻¹ | kon [2]: 1.49e+06 M⁻¹ s⁻¹
Substance: wild type IL-18 (SEQ ID NO: 1, native sequence) (from UniProt Q14116 37-193) (ligand)

Kd [2]: 2.72 nM | koff [2]: 0.0031 s⁻¹ | kon [2]: 1.14e+06 M⁻¹ s⁻¹
Substance: modified IL-18 polypeptide SEQ ID NO: 57 (E6K, C38S, K53A) (from UniProt Q14116 37-193) (ligand)

Kd [1]: 36 nM
Substance: modified IL-18 polypeptide SEQ ID NO: 59 (E6K, C38A, K53A) (from UniProt Q14116 37-193) (ligand)

IC50, IFNγ secretion by NK-92 cells [3]: 532 nM | IC50, IFNγ secretion by NK-92 cells [4]: 146 nM | IC50, IFNγ secretion by NK-92 cells [5]: 10.2 nM | IC50, IFNγ secretion by NK-92 cells [6]: 3.23 nM | IC50, IFNγ secretion by NK-92 cells [7]: 488 nM | IC50, IFNγ secretion by NK-92 cells [8]: 3.98 nM | IC50, IFNγ secretion by NK-92 cells [9]: 284 nM | IC50, IFNγ secretion by NK-92 cells [10]: 1.62 nM | IC50, IFNγ secretion by NK-92 cells [11]: 6.08 nM | IC50, IFNγ secretion by NK-92 cells [12]: 5.85 nM | IC50, IFNγ secretion by NK-92 cells [13]: 654 nM | IC50, IFNγ secretion by NK-92 cells [14]: 0.176 nM | IC50, IFNγ secretion by NK-92 cells [15]: 14.3 nM | IC50, IFNγ secretion by NK-92 cells [16]: 0.681 nM | IC50, IFNγ secretion by NK-92 cells [17]: 522 nM | IC50, IFNγ secretion by NK-92 cells [18]: 779 nM | IC50, IFNγ secretion by NK-92 cells [19]: 1.81 nM | IC50, IFNγ secretion by NK-92 cells [20]: 62.4 nM | IC50, IFNγ secretion by NK-92 cells [21]: 780 nM | IC50, IFNγ secretion by NK-92 cells [22]: 2.22 nM | IC50, IFNγ secretion by NK-92 cells [23]: 5.05 nM | IC50, IFNγ secretion by NK-92 cells [24]: 961 nM | IC50, IFNγ secretion by NK-92 cells [25]: 0.787 nM | IC50, IFNγ secretion by NK-92 cells [26]: 0.44 nM | IC50, IFNγ secretion by NK-92 cells [27]: 0.809 nM | IC50, IFNγ secretion by NK-92 cells [28]: 1.17 nM | IC50, IFNγ secretion by NK-92 cells [29]: 233 nM | IC50, IFNγ secretion by NK-92 cells [30]: 733 nM | IC50, IFNγ secretion by NK-92 cells [31]: 3.18 nM | IC50, IFNγ secretion by NK-92 cells [32]: 0.456 nM | IC50, IFNγ secretion by NK-92 cells [33]: 286 nM | IC50, IFNγ secretion by NK-92 cells [34]: 7.52 nM | IC50, IFNγ secretion by NK-92 cells [35]: 47.6 nM | IC50, IFNγ secretion by NK-92 cells [36]: 1.07 nM | IC50, IFNγ secretion by NK-92 cells [37]: 396 nM | IC50, IFNγ secretion by NK-92 cells [38]: 0.823 nM | IC50, IFNγ secretion by NK-92 cells [39]: 3.71 nM | IC50, IFNγ secretion by NK-92 cells [40]: 7.29 nM | IC50, IFNγ secretion by NK-92 cells [41]: 34 nM | IC50, IFNγ secretion by NK-92 cells [42]: 12 nM | IC50, IFNγ secretion by NK-92 cells [43]: 21.3 nM | IC50, IFNγ secretion by NK-92 cells [44]: 27.2 nM | IC50, IFNγ secretion by NK-92 cells [45]: 3.62 nM | IC50, IFNγ secretion by NK-92 cells [46]: 7.85 nM | IC50, IFNγ secretion by NK-92 cells [47]: 0.885 nM
Substance: Fc fused human IL-18BP isoform a (IL-18BPa) (from UniProt O95998 31-194) (Fc fusion)
